Patent US20110076723A1, “ANTIBODY-PEPTIDE FUSED SYNERGIBODY” (SAMSUNG ELECTRONICS CO., LTD., priority 2008, published 2011)
Where a SMILES comes first, the peptide text is derived from it. Bridges are numbered along the chain shown (N, C = ends).

B1: Syn-Ang-VEGFR-11: fused protein synergibody SAITAng-2-3 × DTN6VEGFR-2-1, peptide at C-terminal of heavy chain (protein)
heavy (part 1 of 2): DVQLVESGGGLVQPGGSRKLSCAASGFTFSSFGMHWVRQAPEKGLEWVAYISSDSSTIYYADTVKGRFTISRDNPKNTLFLQMTSLRSEDTAMYYCAREGGYDDYYAMDYWGQGTSVTVSS
heavy (part 2 of 2): TGSDDLCYTFPCMHY
light: DIQMTQSPASQSASLGESVTITCLASQTIGTWLAWYQQKPGKSPQLLIYAATSLADGVPSRFSGSGSGTKFSFKISSLQAEDFVSYYCQQLYSIPLTFGGGTKLEIK
modifications: left off: a dimerising Fc or GST
notes: fused protein synergibody SAITAng-2-3 × DTN6VEGFR-2-1, peptide at C-terminal of heavy chain
B2: Syn-Ang-VEGFR-12: fused protein synergibody SAITAng-2-3 × DTN8VEGFR-2-2, peptide at C-terminal of heavy chain (protein)
heavy (part 1 of 2): B1 heavy (part 1 of 2)
heavy (part 2 of 2): EAGKETCGYEWQYCPRP
light: B1 light
modifications: left off: a dimerising Fc or GST
notes: fused protein synergibody SAITAng-2-3 × DTN8VEGFR-2-2, peptide at C-terminal of heavy chain
B3: Syn-Ang-VEGFR-13: fused protein synergibody SAITAng-2-3 × DTN9VEGFR-2-3, peptide at C-terminal of heavy chain (protein)
heavy (part 1 of 2): B1 heavy (part 1 of 2)
heavy (part 2 of 2): EAGAYWCKAWGLSPCLVT
light: B1 light
modifications: left off: a dimerising Fc or GST
notes: fused protein synergibody SAITAng-2-3 × DTN9VEGFR-2-3, peptide at C-terminal of heavy chain
B4: Syn-Ang-VEGFR-14: fused protein synergibody SAITAng-2-3 × DTN10VEGFR-2-4, peptide at C-terminal of heavy chain (protein)
heavy (part 1 of 2): B1 heavy (part 1 of 2)
heavy (part 2 of 2): TGSGRMCDGSGPPTNCWFT
light: B1 light
modifications: left off: a dimerising Fc or GST
notes: fused protein synergibody SAITAng-2-3 × DTN10VEGFR-2-4, peptide at C-terminal of heavy chain
B5: Syn-Ang-VEGFR-6: fused protein synergibody SAITAng-2-2 × DTN6VEGFR-2-1, peptide at C-terminal of heavy chain (protein)
heavy (part 1 of 2): QVQLQQSGPELVKPGASVKMSCKASGYTFTDYVISWVKQRTGQGLEWIGEIYPGSGSTYYNEKFKGKASLTADKSSNTAYMQLSSLTSADSAVYFCVRSRGDYYAMDYWGQGTSVTVSS
heavy (part 2 of 2): TGSDDLCYTFPCMHY
light: DIQMTQSPSSLSASLGGKVTITCKASQDINNYITWYQHKPGKGPRLLIHYTSTLQPGIPSRFSGSGSGRDYSFSISNLEPEDIATYYCLQYDNLLTFGGGTKLEIK
modifications: left off: a dimerising Fc or GST
notes: fused protein synergibody SAITAng-2-2 × DTN6VEGFR-2-1, peptide at C-terminal of heavy chain
B6: Syn-Ang-VEGFR-10: fused protein synergibody SAITAng-2-2 × DTN11VEGFR-2-5, peptide at C-terminal of heavy chain (protein)
heavy (part 1 of 2): B5 heavy (part 1 of 2)
heavy (part 2 of 2): PGSQGYCHLNMRYQWICDSE
light: B5 light
modifications: left off: a dimerising Fc or GST
notes: fused protein synergibody SAITAng-2-2 × DTN11VEGFR-2-5, peptide at C-terminal of heavy chain
B7: Syn-Ang-VEGFR-7: fused protein synergibody SAITAng-2-2 × DTN8VEGFR-2-2, peptide at C-terminal of heavy chain (protein)
heavy (part 1 of 2): B5 heavy (part 1 of 2)
heavy (part 2 of 2): EAGKETCGYEWQYCPRP
light: B5 light
modifications: left off: a dimerising Fc or GST
notes: fused protein synergibody SAITAng-2-2 × DTN8VEGFR-2-2, peptide at C-terminal of heavy chain
B8: Syn-Ang-VEGFR-8: fused protein synergibody SAITAng-2-2 × DTN9VEGFR-2-3, peptide at C-terminal of heavy chain (protein)
heavy (part 1 of 2): B5 heavy (part 1 of 2)
heavy (part 2 of 2): EAGAYWCKAWGLSPCLVT
light: B5 light
modifications: left off: a dimerising Fc or GST
notes: fused protein synergibody SAITAng-2-2 × DTN9VEGFR-2-3, peptide at C-terminal of heavy chain
B9: Syn-Ang-VEGFR-9: fused protein synergibody SAITAng-2-2 × DTN10VEGFR-2-4, peptide at C-terminal of heavy chain (protein)
heavy (part 1 of 2): B5 heavy (part 1 of 2)
heavy (part 2 of 2): TGSGRMCDGSGPPTNCWFT
light: B5 light
modifications: left off: a dimerising Fc or GST
notes: fused protein synergibody SAITAng-2-2 × DTN10VEGFR-2-4, peptide at C-terminal of heavy chain

System: HUVEC
Test: Cell-based functional assay, endothelial cell tube formation (BD BioCoat Angiogenesis System)
Parameters: species or system human
Details: 18 hours, unrelated control group 12,227 ± 1,232; for Length of the entire tube of HUVEC (2 × 10^4 cells) (pixels): 5 μM synthesized peptide; for Length of entire tube of HUVEC (2 × 10^4 cells) (pixels): 5 μM fused protein synergibody
Experimental: Chimeric antibodies may be screened by functional assays such as cell-based assay for inhibition activity. In this example, BD BioCoat™ Angiogenesis System-Endothelial Cell Tube Formation (BD Biosciences) is used. BD Falcon 96-well Black/Clear plate coated with BD Matrigel Matrix that had been stored at −20° C. is slowly melted at 4° C. for 6 hours, and the mat cover of the plate is removed inside a sterile clean bench. Then it is left at 37° C. , 5% CO2 for 30 minutes so that the Matrigel™ Matrix would form polymers. Then it is made into a suspension by treating HUVEC, cultured on a petridish containing EGM-2 MV (Lonza) medium added with 10% fetal bovine serum to 70 to 80% confluence, with 0.5% Trypsin-EDTA (Gibco). Then it is resuspended in a culture medium containing 10% fetal bovine serum to a cell concentration of 4×10^5 cells/ml. At this time, 5 μM of each anti-Ang-2 chimeric antibodies expressed and purified in Section 5 above are also added and resuspended. Then 50 μl (about 2×10^4 cells) of each of the suspension is added to each well of the plate and incubated at 37° C. , 5% CO2 for 18 hours. Then the medium is removed and each well is washed twice with 100 μl of Hanks' balanced salt solution (HBSS, Invitrogen) ensuring that the tubes of the cells formed on BD Matrigel™ Matrix are not damaged. 50 μl of calcein AM (BD sciences) dissolved in HBSS at the concentration of 8 μg/ml is added to each well. The plate is then left to react at 37° C., 5% CO2 for 30 minutes and the calcein AM (BD sciences) solution is removed and washed twice with HBSS. Lastly, an image of the length of the entire tube of HUVEC formed on BD Matrigel™ Matrix is obtained on a fluorescent microscope and analyzed by using MetaMorph® software (Universal Imaging Corporation™, http://www.moleculardevices.com).
The peptides synthesized in Section 6A above are screened by cell-based functional assay for inhibition activity. The method described in Example 1, Section 7 is used, except that 5 μM synthesized peptides are added instead of anti-Ang-2 antibodies.
The fused protein synergibodies prepared in Section 1 above are screened using cell-based functional assay for inhibition activity. The method described in Example 1, Section 7 is used, except that, in this example, 5 μM of fused protein synergibodies are added instead of anti-Ang-2 antibodies.

Molecule | Length of the entire tube of HUVEC (2 × 10^4 cells) (pixels) | Length of entire tube of HUVEC (2 × 10^4 cells) (pixels)
CSCC[C@H](NC(=O)[C@@H]1CSSC[C@H](NC(=O)[C@H](CC(C)C)NC(=O)[C@H](CC(=O)O)NC(=O)[C@H](CC(=O)O)NC(=O)[C@H](CO)NC(=O)CNC(=O)[C@@H](N)[C@@H](C)O)C(=O)N[C@@H](Cc2ccc(O)cc2)C(=O)N[C@@H]([C@@H](C)O)C(=O)N[C@@H](Cc2ccccc2)C(=O)N2CCC[C@H]2C(=O)N1)C(=O)N[C@@H](Cc1c[nH]cn1)C(=O)N[C@@H](Cc1ccc(O)cc1)C(=O)O [DTN6VEGFR-2-1] (H-TGSDDLCYTFPCMHY-OH; disulfide 7-12; N-terminus and C-terminus assumed) | 11,093 ± 1,308 pixels | 
CC[C@H](C)[C@@H]1NC(=O)[C@H](Cc2c[nH]c3ccccc23)NC(=O)[C@H](CCC(N)=O)NC(=O)[C@H](Cc2ccc(O)cc2)NC(=O)[C@H](CCCNC(=N)N)NC(=O)[C@H](CCSC)NC(=O)[C@H](CC(N)=O)NC(=O)[C@H](CC(C)C)NC(=O)[C@H](Cc2c[nH]cn2)NC(=O)[C@@H](NC(=O)[C@H](Cc2ccc(O)cc2)NC(=O)CNC(=O)[C@H](CCC(N)=O)NC(=O)[C@H](CO)NC(=O)CNC(=O)[C@@H]2CCCN2)CSSC[C@@H](C(=O)N[C@@H](CC(=O)O)C(=O)N[C@@H](CO)C(=O)N[C@@H](CCC(=O)O)C(=O)O)NC1=O [DTN11VEGFR-2-5] (H-PGSQGYCHLNMRYQWICDSE-OH; disulfide 7-17; N-terminus and C-terminus assumed) | 11,896 ± 1,159 pixels | 
CC(C)C[C@@H]1NC(=O)CNC(=O)[C@H](Cc2c[nH]c3ccccc23)NC(=O)[C@H](C)NC(=O)[C@H](CCCCN)NC(=O)[C@@H](NC(=O)[C@H](Cc2c[nH]c3ccccc23)NC(=O)[C@H](Cc2ccc(O)cc2)NC(=O)[C@H](C)NC(=O)CNC(=O)[C@H](C)NC(=O)[C@@H](N)CCC(=O)O)CSSC[C@@H](C(=O)N[C@@H](CC(C)C)C(=O)N[C@H](C(=O)N[C@H](C(=O)O)[C@@H](C)O)C(C)C)NC(=O)[C@@H]2CCCN2C(=O)[C@H](CO)NC1=O [DTN9VEGFR-2-3] (H-EAGAYWCKAWGLSPCLVT-OH; disulfide 7-15; N-terminus and C-terminus assumed) | 12,101 ± 869 pixels | 
C[C@H](NC(=O)[C@@H](N)CCC(=O)O)C(=O)NCC(=O)N[C@@H](CCCCN)C(=O)N[C@@H](CCC(=O)O)C(=O)N[C@H](C(=O)N[C@H]1CSSC[C@@H](C(=O)N2CCC[C@H]2C(=O)N[C@@H](CCCNC(=N)N)C(=O)N2CCC[C@H]2C(=O)O)NC(=O)[C@H](Cc2ccc(O)cc2)NC(=O)[C@H](CCC(N)=O)NC(=O)[C@H](Cc2c[nH]c3ccccc23)NC(=O)[C@H](CCC(=O)O)NC(=O)[C@H](Cc2ccc(O)cc2)NC(=O)CNC1=O)[C@@H](C)O [DTN8VEGFR-2-2] (H-EAGKETCGYEWQYCPRP-OH; disulfide 7-14; N-terminus and C-terminus assumed) | 10,891 ± 1,014 pixels | 
CSCC[C@H](NC(=O)[C@H](CCCNC(=N)N)NC(=O)CNC(=O)[C@H](CO)NC(=O)CNC(=O)[C@@H](N)[C@@H](C)O)C(=O)N[C@H]1CSSC[C@@H](C(=O)N[C@@H](Cc2c[nH]c3ccccc23)C(=O)N[C@@H](Cc2ccccc2)C(=O)N[C@H](C(=O)O)[C@@H](C)O)NC(=O)[C@H](CC(N)=O)NC(=O)[C@H]([C@@H](C)O)NC(=O)[C@@H]2CCCN2C(=O)[C@@H]2CCCN2C(=O)CNC(=O)[C@H](CO)NC(=O)CNC(=O)[C@H](CC(=O)O)NC1=O [DTN10VEGFR-2-4] (H-TGSGRMCDGSGPPTNCWFT-OH; disulfide 7-16; N-terminus and C-terminus assumed) | 10,773 ± 992 pixels | 
B1 |  | 3,925 ± 675 pixels
B2 |  | 3,899 ± 923 pixels
B3 |  | 4,216 ± 747 pixels
B4 |  | 4,183 ± 698 pixels
B5 |  | 6,157 ± 1,141 pixels
B6 |  | 5,898 ± 1,037 pixels
B7 |  | 5,935 ± 995 pixels
B8 |  | 6,244 ± 935 pixels
B9 |  | 6,055 ± 779 pixels
